Where two headings read alike, the source gives them in different places.
How the values were obtained:
Experiment in all cases: ITC
[1] = target: S.c. Grx3 (residues 36-285, Trx-like and Grx-like domains) (S. cerevisiae)
[2] = target: S.c. Grx3 (residues 36-285, Trx-like and Grx-like domains) (S. cerevisiae); remark: listed apart in the source
[3] = target: T1, H.s. GLRX5 lacking the first 31 amino acids (Δ1-31) (human, UniProt Q86SX6 32-157)
T1 sequence (looked up): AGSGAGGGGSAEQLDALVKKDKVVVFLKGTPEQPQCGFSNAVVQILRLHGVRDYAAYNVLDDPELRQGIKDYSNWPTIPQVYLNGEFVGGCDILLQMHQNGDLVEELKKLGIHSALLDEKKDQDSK

Kd [1]: 6.7 µM
stoichiometry N [1]: 0.94
Ka [2]: 150000 M⁻¹
dH [2]: -0.787 kcal/mol
stoichiometry N [2]: 0.98
Ka [3]: 120000 M⁻¹
dH [3]: -0.518 ± 0.0342 kcal/mol
stoichiometry N [3]: 1.02 ± 0.05
B1: human BOLA3 (residues 25-107, lacking the mitochondrial targeting sequence) (natural protein, UniProt Q53S33 25-107, looked up)
chain: MFATQTEGELRVTQILKEKFPRATAIKVTDISGGCGAMYEIKIESEEFKEKRTVQQHQMVNQALKEEIKEMHGLRIFTSVPKR
